Assays:
[1] = target: recombinant UBE3A protein (Homo sapiens (Human)) (UniProt Q05086); experiment: 2-step Simoa; capture MS 3E5; UBE3A 0.1 ng/ml
[2] = target: recombinant UBE3A protein (Homo sapiens (Human)) (UniProt Q05086); experiment: 2-step Simoa; capture GTX; UBE3A 1 ng/ml
[3] = target: recombinant UBE3A protein (Homo sapiens (Human)) (UniProt Q05086); experiment: 2-step Simoa; capture MS 3E5; UBE3A 1 ng/ml
[4] = target: recombinant UBE3A protein (Homo sapiens (Human)) (UniProt Q05086); experiment: 3-step Simoa; capture Novus; UBE3A 1 ng/ml
[5] = target: recombinant UBE3A protein (Homo sapiens (Human)) (UniProt Q05086); experiment: 2-step Simoa; capture MS 3E5; UBE3A 0.01 ng/ml
[6] = target: recombinant UBE3A protein (Homo sapiens (Human)) (UniProt Q05086); experiment: 2-step Simoa; capture Novus; UBE3A 0.01 ng/ml
[7] = target: recombinant UBE3A protein (Homo sapiens (Human)) (UniProt Q05086); experiment: 2-step Simoa; capture GTX; UBE3A 10 ng/ml
[8] = target: recombinant UBE3A protein (Homo sapiens (Human)) (UniProt Q05086); experiment: 3-step Simoa; capture MS 3E5; UBE3A 0.010 ng/ml
[9] = target: recombinant UBE3A protein (Homo sapiens (Human)) (UniProt Q05086); experiment: 3-step Simoa; capture Novus; UBE3A 0.1 ng/ml
[10] = target: recombinant UBE3A protein (Homo sapiens (Human)) (UniProt Q05086); experiment: 2-step Simoa; capture Novus; UBE3A 10 ng/ml
[11] = target: recombinant UBE3A protein (Homo sapiens (Human)) (UniProt Q05086); experiment: 3-step Simoa; capture Novus; UBE3A 10 ng/ml
[12] = target: recombinant UBE3A protein (Homo sapiens (Human)) (UniProt Q05086); experiment: 3-step Simoa; capture MS 3E5; UBE3A 0.1 ng/ml
[13] = target: recombinant UBE3A protein (Homo sapiens (Human)) (UniProt Q05086); experiment: 3-step Simoa; capture GTX; UBE3A 10 ng/ml
[14] = target: recombinant UBE3A protein (Homo sapiens (Human)) (UniProt Q05086); experiment: 2-step Simoa; capture GTX; UBE3A 0.1 ng/ml
[15] = target: recombinant UBE3A protein (Homo sapiens (Human)) (UniProt Q05086); experiment: 2-step Simoa; capture MS 3E5; UBE3A 10 ng/ml
[16] = target: recombinant UBE3A protein (Homo sapiens (Human)) (UniProt Q05086); experiment: 3-step Simoa; capture MS 3E5; UBE3A 1 ng/ml
[17] = target: recombinant UBE3A protein (Homo sapiens (Human)) (UniProt Q05086); experiment: 3-step Simoa; capture MS 3E5; UBE3A 10 ng/ml
[18] = target: recombinant UBE3A protein (Homo sapiens (Human)) (UniProt Q05086); experiment: 2-step Simoa; capture GTX; UBE3A 0.01 ng/ml
[19] = target: recombinant UBE3A protein (Homo sapiens (Human)) (UniProt Q05086); experiment: 2-step Simoa; capture Novus; UBE3A 0.1 ng/ml
[20] = target: recombinant UBE3A protein (Homo sapiens (Human)) (UniProt Q05086); experiment: 3-step Simoa; capture GTX; UBE3A 0.01 ng/ml
[21] = target: recombinant UBE3A protein (Homo sapiens (Human)) (UniProt Q05086); experiment: 3-step Simoa; capture Novus; UBE3A 0.01 ng/ml
[22] = target: recombinant UBE3A protein (Homo sapiens (Human)) (UniProt Q05086); experiment: 3-step Simoa; capture GTX; UBE3A 1 ng/ml
[23] = target: recombinant UBE3A protein (Homo sapiens (Human)) (UniProt Q05086); experiment: 3-step Simoa; capture GTX; UBE3A 0.1 ng/ml
[24] = target: recombinant UBE3A protein (Homo sapiens (Human)) (UniProt Q05086); experiment: 2-step Simoa; capture Novus; UBE3A 1 ng/ml

Sequence of UniProt Q05086 (Q05086 whole entry): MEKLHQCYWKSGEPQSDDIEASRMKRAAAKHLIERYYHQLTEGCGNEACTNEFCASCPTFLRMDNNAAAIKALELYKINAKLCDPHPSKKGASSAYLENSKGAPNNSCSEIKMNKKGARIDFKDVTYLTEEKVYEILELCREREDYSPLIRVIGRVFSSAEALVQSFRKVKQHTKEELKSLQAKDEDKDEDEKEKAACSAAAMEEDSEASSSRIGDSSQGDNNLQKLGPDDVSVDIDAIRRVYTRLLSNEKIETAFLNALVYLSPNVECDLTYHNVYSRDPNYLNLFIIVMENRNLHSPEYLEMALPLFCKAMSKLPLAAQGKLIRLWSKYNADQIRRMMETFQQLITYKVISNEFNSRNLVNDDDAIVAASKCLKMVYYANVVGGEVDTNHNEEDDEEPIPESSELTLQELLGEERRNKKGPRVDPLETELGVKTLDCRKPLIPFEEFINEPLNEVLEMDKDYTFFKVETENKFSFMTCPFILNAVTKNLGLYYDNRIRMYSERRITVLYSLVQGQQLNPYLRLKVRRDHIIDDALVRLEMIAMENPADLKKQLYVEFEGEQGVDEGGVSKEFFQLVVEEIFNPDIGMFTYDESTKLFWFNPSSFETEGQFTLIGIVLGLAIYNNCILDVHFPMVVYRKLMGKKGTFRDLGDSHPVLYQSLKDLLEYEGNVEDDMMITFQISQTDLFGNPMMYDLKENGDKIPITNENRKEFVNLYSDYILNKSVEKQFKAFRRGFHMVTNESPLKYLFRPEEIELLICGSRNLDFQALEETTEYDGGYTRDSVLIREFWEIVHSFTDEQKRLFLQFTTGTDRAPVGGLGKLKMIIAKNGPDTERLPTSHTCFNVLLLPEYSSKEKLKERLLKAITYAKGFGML

In the case of “2F6 (WH0007337M1-100 ug, Millipore-Sigma) (antibody)”, the AEB1 [1] is reported as 0.0191, the AEB2 [1] is reported as 0.018 and the Ave AEB [1] is reported as 0.0186. For the same substance, the Signal to Background [1] was 1.12, the AEB1 [2] was 0.0965 and the AEB2 [2] was 0.095. It also gave an Ave AEB [2] of 0.0957, a Signal to Background [2] of 1.04 and an AEB1 [3] of 0.0234. It also gave an AEB2 [3] of 0.0226, an Ave AEB [3] of 0.023 and a Signal to Background [3] of 1.39. For the same substance, the AEB1 [4] was 0.0277, the AEB2 [4] was 0.024 and the Ave AEB [4] was 0.0259. The Signal to Background [4] was 1.08, the AEB1 [5] was 0.0177 and the AEB2 [5] was 0.016. For the same substance, the Ave AEB [5] was 0.0168, the Signal to Background [5] was 1.01 and the AEB1 [6] was 0.0511. For the same substance, the AEB2 [6] was 0.0431, the Ave AEB [6] was 0.0471 and the Signal to Background [6] was 0.95. It also gave an AEB1 [7] of 0.109, an AEB2 [7] of 0.109 and an Ave AEB [7] of 0.109. The Signal to Background [7] was 1.19, the AEB1 [8] was 0.0052 and the AEB2 [8] was 0.0068. The Ave AEB [8] was 0.006, the Signal to Background [8] was 0.792 and the AEB1 [9] was 0.0269. For the same substance, the AEB2 [9] was 0.0251, the Ave AEB [9] was 0.026 and the Signal to Background [9] was 1.09. For the same substance, the AEB1 [10] was 0.0475, the AEB2 [10] was 0.045 and the Ave AEB [10] was 0.0462. For the same substance, the Signal to Background [10] was 0.92, the AEB1 [11] was 0.0249 and the Ave AEB [11] was 0.0249. The Signal to Background [11] was 1.04, the AEB1 [12] was 0.0078 and the AEB2 [12] was 0.0073. The Ave AEB [12] was 0.0075, the Signal to Background [12] was 0.99 and the AEB1 [13] was 0.047. It also gave an AEB2 [13] of 0.0463, an Ave AEB [13] of 0.0466 and a Signal to Background [13] of 1.05. It also gave an AEB1 [14] of 0.0906, an AEB2 [14] of 0.0965 and an Ave AEB [14] of 0.0936. The Signal to Background [14] was 1.02, the AEB1 [15] was 0.0582 and the AEB2 [15] was 0.0565. For the same substance, the Ave AEB [15] was 0.0574, the Signal to Background [15] was 3.46 and the AEB1 [16] was 0.009. For the same substance, the AEB2 [16] was 0.0088, the Ave AEB [16] was 0.0089 and the Signal to Background [16] was 1.17. The AEB1 [17] was 0.0203, the AEB2 [17] was 0.0195 and the Ave AEB [17] was 0.0199. The Signal to Background [17] was 2.62, the AEB1 [18] was 0.0965 and the AEB2 [18] was 0.0944. It also gave an Ave AEB [18] of 0.0955, a Signal to Background [18] of 1.04 and an AEB1 [19] of 0.047. It also gave an AEB2 [19] of 0.0451, an Ave AEB [19] of 0.046 and a Signal to Background [19] of 0.93. The AEB1 [20] was 0.043, the AEB2 [20] was 0.0459 and the Ave AEB [20] was 0.0445. The Signal to Background [20] was 1.01, the AEB1 [21] was 0.0221 and the AEB2 [21] was 0.0242. It also gave an Ave AEB [21] of 0.0232, a Signal to Background [21] of 0.97 and an AEB1 [22] of 0.0409. The AEB2 [22] was 0.0476, the Ave AEB [22] was 0.0443 and the Signal to Background [22] was 1. It also gave an AEB1 [23] of 0.0432, an AEB2 [23] of 0.0414 and an Ave AEB [23] of 0.0423. For the same substance, the Signal to Background [23] was 0.96, the AEB1 [24] was 0.048 and the AEB2 [24] was 0.0444. For the same substance, the Ave AEB [24] was 0.0462 and the Signal to Background [24] was 0.93.
